The target in experiment [1] is PaSOD-1 (Cys-less CuZnSOD from Paenibacillus lautus NBRC 15380, WP_246059278.1 without the predicted signal peptide) (Paenibacillus lautus NBRC 15380). The experiment in a line: SEC-MALS; apo form; 20 μM protein in MN buffer (50 mM Mops, 100 mM NaCl, pH 7.0); Cosmosil 5Diol-300-II column, miniDAWN TREOS. In general terms: In gel filtration, larger molecules generally elute earlier.

For experiment [2] the target is unchanged. The experiment can be described thus: SEC-MALS; holo form (copper and zinc bound); 20 μM protein in MN buffer (50 mM Mops, 100 mM NaCl, pH 7.0); Cosmosil 5Diol-300-II column, miniDAWN TREOS.
The target of experiment [3] is PaSOD-2 (Cys-less CuZnSOD from Paenibacillus lautus NBRC 15380, WP_246059286.1 without the predicted signal peptide) (Paenibacillus lautus NBRC 15380). The experiment in a line: SEC-MALS; apo form; 20 μM protein in MN buffer (50 mM Mops, 100 mM NaCl, pH 7.0); Cosmosil 5Diol-300-II column, miniDAWN TREOS.
The target is the same in experiment [4]. The experiment in a line: SEC-MALS; holo form (copper and zinc bound); 20 μM protein in MN buffer (50 mM Mops, 100 mM NaCl, pH 7.0); Cosmosil 5Diol-300-II column, miniDAWN TREOS.

Turning to “PaSOD-1 (Cys-less CuZnSOD from Paenibacillus lautus NBRC 15380, WP_246059278.1 without the predicted signal peptide) (enzyme)”, the stoichiometry N in experiment [1] and in experiment [2] was 2 throughout.

Turning to “PaSOD-2 (Cys-less CuZnSOD from Paenibacillus lautus NBRC 15380, WP_246059286.1 without the predicted signal peptide) (enzyme)”, the stoichiometry N in experiment [3] and in experiment [4] was 2 throughout.

Values taken from PMC10432803.
